Test results published in patent US20140161803A1, “CONSTITUTIVELY ACTIVE UPAR VARIANTS AND THEIR USE FOR THE GENERATION AND ISOLATION OF INHIBITORY ANTIBODIES” (IFOM Fondazione Istituo FIRC di Oncologia Molecolare, priority 2011, published 2014).

Biological target: wild-type human uPAR (human) (UniProt Q03405)
Experiment: cell-based or functional assay

Sequence of wild-type human uPAR (human) (Q03405 23-305): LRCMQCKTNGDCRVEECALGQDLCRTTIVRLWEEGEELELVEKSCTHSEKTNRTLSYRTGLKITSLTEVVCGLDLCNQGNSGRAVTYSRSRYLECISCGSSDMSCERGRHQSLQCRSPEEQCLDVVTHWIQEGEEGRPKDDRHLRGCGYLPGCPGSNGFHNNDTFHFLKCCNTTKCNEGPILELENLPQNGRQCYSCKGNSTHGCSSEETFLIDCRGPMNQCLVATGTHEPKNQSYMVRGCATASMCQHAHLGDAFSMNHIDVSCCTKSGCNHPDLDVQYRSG

Substance	% max inhibition (pro-uPA pre-treat.)	% max inhibition (veh. pre-treat.)	IC50 (pro-uPA pre-treat.)
R2 (antibody)	21%	65%	
Somatomedin B domain of VN (from UniProt P04004 20-63) (ligand)	100%	100%	800 nM
